Among the data in publication PMC2876975 are percent co-immunoprecipitated values, retold here.

Where only a bound is given, the exact number is not on record here.

The target in test [1] is c-Myc–HMPV P, in vitro translated, unlabelled (human metapneumovirus strain TN/96-12). The experiment in a line: co-IP.
Test [2] deals with c-Myc–HMPV N, in vitro translated, unlabelled (human metapneumovirus strain TN/96-12). The experiment in a line: co-IP.

As for “Radiolabelled native HMPV N, in vitro translated (natural protein)”, the percent co-immunoprecipitated in test [1] is under 1%.

“Radiolabelled native HMPV P, in vitro translated (natural protein)”: the percent co-immunoprecipitated in test [2] is under 1%.
